Reference: paper doi:10.1101/2020.07.08.194100

Experiments:
[1] = target: GST-RhoA^N19 (inactive RhoA) (UniProt P61586); assay: pull-down
[2] = target: GST-RhoA^V14 (constitutively active RhoA) (UniProt P61586); assay: pull-down

- fold change of binding after PMA against vehicle control [1]: 2 fold
- fold change of binding after PMA against vehicle control [2]: 2 fold
Substance: HA-tagged wild-type diacylglycerol kinase ζ (HA-DGKζ) (enzyme)
